Publication PMC9315659

Legend:
[1] = target: T1, S207D LysRS(ΔN65) (human, UniProt Q15046 66-597, S207D); experiment: fluorescence anisotropy; 1 mM Mg2+; FA: 20 mM Tris-HCl pH 8, 15 mM NaCl, 35 mM KCl, 1 mM MgCl2, 20 nM RNA (30 nM per supplement), temperature not stated; XL-SHAPE: 20 mM HEPES pH 7.5, 60 mM NaCl; settings: protein: recombinant; tags: His; chain copies: 2; label: 3' fluorescein (FTSC); tRNA fold
[2] = target: T2, WT LysRS(ΔN65) (human, UniProt Q15046 66-597); experiment: as above; settings: protein: recombinant; tags: His; chain copies: 2; label: 3' fluorescein (FTSC); tRNA fold
[3] = target: T1, S207D LysRS(ΔN65); experiment: fluorescence anisotropy; 1 mM Mg2+; settings: protein: recombinant, tags: His, chain copies: 2
[4] = target: T2, WT LysRS(ΔN65); experiment: fluorescence anisotropy; 1 mM Mg2+; settings: protein: recombinant, tags: His, chain copies: 2
[5] = label: 3' fluorescein (FTSC) on RNA, 21-nt DNA annealed to folded RNA, 1.5x DNA
[6] = label: 3' fluorescein (FTSC) on RNA, 18-nt DNA annealed to PBS of folded RNA, 1.5x DNA
[7] = label: 3' fluorescein (FTSC) in FA, folded domain with TLE hairpin
[8] = label: 3' fluorescein (FTSC) on RNA, 29-nt DNA annealed, extends into TLE stem, 1.5x DNA
[9] = label: 3' fluorescein (FTSC) on RNA, 24-nt DNA annealed, extends into TLE stem, 1.5x DNA

T1 sequence (Q15046 66-597 S207D): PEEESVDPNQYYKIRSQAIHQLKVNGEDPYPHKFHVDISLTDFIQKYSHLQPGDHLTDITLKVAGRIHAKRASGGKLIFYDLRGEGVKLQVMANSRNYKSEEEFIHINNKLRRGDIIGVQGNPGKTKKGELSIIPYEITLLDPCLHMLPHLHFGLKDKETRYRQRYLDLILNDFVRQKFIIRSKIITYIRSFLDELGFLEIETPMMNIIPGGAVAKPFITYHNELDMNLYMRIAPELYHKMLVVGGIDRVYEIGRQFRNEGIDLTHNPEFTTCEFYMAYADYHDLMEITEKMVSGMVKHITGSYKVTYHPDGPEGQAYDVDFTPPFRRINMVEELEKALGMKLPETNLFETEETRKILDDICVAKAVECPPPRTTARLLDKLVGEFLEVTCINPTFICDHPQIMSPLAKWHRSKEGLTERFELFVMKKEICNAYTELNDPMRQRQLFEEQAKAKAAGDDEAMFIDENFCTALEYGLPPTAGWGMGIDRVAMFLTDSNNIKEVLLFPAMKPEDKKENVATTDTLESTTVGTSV
T2 sequence (Q15046 66-597, stated change not applied): as the sequence (Q15046 66-597 S207D) above, with D142S counted along it

B1: tRNALys3 (structured_RNA)
RNA: GCCCGGAUAGCUCAGUCGGUAGAGCAUCAGACUUUUAAUCUGAGGGUCCAGGGUUCAAGUCCCUGUUCGGGCGCCA
modifications: unmodified transcript
**Q.** How did the Kd [1] turn out when B1 was run?
**A.** The Kd was 470 ± 190 nM.

**Q.** And the Kd [2]?
**A.** The Kd was 407 ± 33 nM.

B2: PBS/TLE105:antiPBS18+3 (mixed)
RNA: GGGCUCUGGUAACUAGAGAUCCCUCAGACCCUUUUAGUCAGUGUGGAAAAUCUCUAGCAGUGGCGCCCGAACAGGGACUUGAAAGCGAAAGUAAAGCCAGAGCCC
DNA: GTCCCTGTTCGGGCGCCACTG
**Q.** With B2 as the binder, how does the Kd [3, 5] read?
**A.** The Kd was 305 ± 75 nM.

**Q.** And the Kd [4, 5]?
**A.** Its Kd is 488 ± 171 nM.

B3: PBS/TLE105:antiPBS18 (mixed)
RNA: GGGCUCUGGUAACUAGAGAUCCCUCAGACCCUUUUAGUCAGUGUGGAAAAUCUCUAGCAGUGGCGCCCGAACAGGGACUUGAAAGCGAAAGUAAAGCCAGAGCCC
DNA: GTCCCTGTTCGGGCGCCA
**Q.** Which results are given for B3?
**A.** Kd [3, 6]: 417 ± 90 nM; Kd [4, 6]: 240 ± 95 nM

B4: PBS/TLE105 (structured_RNA)
RNA: GGGCUCUGGUAACUAGAGAUCCCUCAGACCCUUUUAGUCAGUGUGGAAAAUCUCUAGCAGUGGCGCCCGAACAGGGACUUGAAAGCGAAAGUAAAGCCAGAGCCC
**Q.** For B4, which Kd [3, 7] is on record?
**A.** The Kd was 315 ± 130 nM.

**Q.** And the Kd [4, 7]?
**A.** Its Kd is 330 ± 115 nM.

B5: PBS/TLE105:antiPBS18+11 (mixed)
RNA: GGGCUCUGGUAACUAGAGAUCCCUCAGACCCUUUUAGUCAGUGUGGAAAAUCUCUAGCAGUGGCGCCCGAACAGGGACUUGAAAGCGAAAGUAAAGCCAGAGCCC
DNA: GTCCCTGTTCGGGCGCCACTGCTAGAGAT
**Q.** With B5 as the binder, how does the Kd [3, 8] read?
**A.** Its Kd is 949 ± 148 nM.

**Q.** What about the Kd [4, 8] of the same binder?
**A.** The Kd was 1010 ± 639 nM.

B6: PBS/TLE105:antiPBS18+6 (mixed)
RNA: GGGCUCUGGUAACUAGAGAUCCCUCAGACCCUUUUAGUCAGUGUGGAAAAUCUCUAGCAGUGGCGCCCGAACAGGGACUUGAAAGCGAAAGUAAAGCCAGAGCCC
DNA: GTCCCTGTTCGGGCGCCACTGCTA
**Q.** With B6 as the binder, how does the Kd [3, 9] read?
**A.** Its Kd is 590 ± 182 nM.

**Q.** What about the Kd [4, 9] of the same binder?
**A.** Its Kd is 865 ± 379 nM.
